Reference: patent US20110294738A1, “PTHR1 RECEPTOR COMPOUNDS” (priority 2008, published 2011)
* marks the point of attachment. Palmitoyl = CCCCCCCCCCCCCCCC(=O)*

Target: PTHR1 receptor
Sequence (P25961 whole entry): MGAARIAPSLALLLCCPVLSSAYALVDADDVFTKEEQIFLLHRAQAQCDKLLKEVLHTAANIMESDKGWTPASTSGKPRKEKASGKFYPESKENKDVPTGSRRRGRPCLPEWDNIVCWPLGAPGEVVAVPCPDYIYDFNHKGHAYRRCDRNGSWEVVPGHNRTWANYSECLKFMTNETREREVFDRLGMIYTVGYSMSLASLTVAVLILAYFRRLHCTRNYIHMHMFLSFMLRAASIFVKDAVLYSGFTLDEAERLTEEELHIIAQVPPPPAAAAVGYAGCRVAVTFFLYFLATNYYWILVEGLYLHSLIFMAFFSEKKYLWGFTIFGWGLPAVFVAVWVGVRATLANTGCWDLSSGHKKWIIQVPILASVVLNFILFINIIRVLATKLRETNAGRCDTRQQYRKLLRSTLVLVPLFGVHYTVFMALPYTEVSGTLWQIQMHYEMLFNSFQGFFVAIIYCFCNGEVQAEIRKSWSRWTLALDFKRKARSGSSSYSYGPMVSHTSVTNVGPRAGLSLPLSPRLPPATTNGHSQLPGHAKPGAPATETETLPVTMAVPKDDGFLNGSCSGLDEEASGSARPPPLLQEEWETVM

B1: Compound 60 (peptide)
peptide: Palmitoyl-RETNAGRSDTRQQYRK-NH2
SMILES: CCCCCCCCCCCCCCCC(=O)N[C@@H](CCCNC(=N)N)C(=O)N[C@@H](CCC(=O)O)C(=O)N[C@H](C(=O)N[C@@H](CC(N)=O)C(=O)N[C@@H](C)C(=O)NCC(=O)N[C@@H](CCCNC(=N)N)C(=O)N[C@@H](CO)C(=O)N[C@@H](CC(=O)O)C(=O)N[C@H](C(=O)N[C@@H](CCCNC(=N)N)C(=O)N[C@@H](CCC(N)=O)C(=O)N[C@@H](CCC(N)=O)C(=O)N[C@@H](Cc1ccc(O)cc1)C(=O)N[C@@H](CCCNC(=N)N)C(=O)N[C@@H](CCCCN)C(N)=O)[C@@H](C)O)[C@@H](C)O
Fold Shift of EC50: 3.3 fold | Inhibition of Maximal Response: 4.3%

B2: Compound 64 (peptide)
peptide: Palmitoyl-TNAGRSDTRQQYRKLLKS-NH2
SMILES: CCCCCCCCCCCCCCCC(=O)N[C@H](C(=O)N[C@@H](CC(N)=O)C(=O)N[C@@H](C)C(=O)NCC(=O)N[C@@H](CCCNC(=N)N)C(=O)N[C@@H](CO)C(=O)N[C@@H](CC(=O)O)C(=O)N[C@H](C(=O)N[C@@H](CCCNC(=N)N)C(=O)N[C@@H](CCC(N)=O)C(=O)N[C@@H](CCC(N)=O)C(=O)N[C@@H](Cc1ccc(O)cc1)C(=O)N[C@@H](CCCNC(=N)N)C(=O)N[C@@H](CCCCN)C(=O)N[C@@H](CC(C)C)C(=O)N[C@@H](CC(C)C)C(=O)N[C@@H](CCCCN)C(=O)N[C@@H](CO)C(N)=O)[C@@H](C)O)[C@@H](C)O
Fold Shift of EC50: 7 fold | Inhibition of Maximal Response: -0.1%

B3: Compound 62 (peptide)
peptide: Palmitoyl-RETNAGRSDTRQQY-NH2
SMILES: CCCCCCCCCCCCCCCC(=O)N[C@@H](CCCNC(=N)N)C(=O)N[C@@H](CCC(=O)O)C(=O)N[C@H](C(=O)N[C@@H](CC(N)=O)C(=O)N[C@@H](C)C(=O)NCC(=O)N[C@@H](CCCNC(=N)N)C(=O)N[C@@H](CO)C(=O)N[C@@H](CC(=O)O)C(=O)N[C@H](C(=O)N[C@@H](CCCNC(=N)N)C(=O)N[C@@H](CCC(N)=O)C(=O)N[C@@H](CCC(N)=O)C(=O)N[C@@H](Cc1ccc(O)cc1)C(N)=O)[C@@H](C)O)[C@@H](C)O
Fold Shift of EC50: 1.1 fold | Inhibition of Maximal Response: -5.4%

B4: Compound 58 (peptide)
peptide: Palmitoyl-RETNAGRSDTRQQYRKLLFS-NH2
SMILES: CCCCCCCCCCCCCCCC(=O)N[C@@H](CCCNC(=N)N)C(=O)N[C@@H](CCC(=O)O)C(=O)N[C@H](C(=O)N[C@@H](CC(N)=O)C(=O)N[C@@H](C)C(=O)NCC(=O)N[C@@H](CCCNC(=N)N)C(=O)N[C@@H](CO)C(=O)N[C@@H](CC(=O)O)C(=O)N[C@H](C(=O)N[C@@H](CCCNC(=N)N)C(=O)N[C@@H](CCC(N)=O)C(=O)N[C@@H](CCC(N)=O)C(=O)N[C@@H](Cc1ccc(O)cc1)C(=O)N[C@@H](CCCNC(=N)N)C(=O)N[C@@H](CCCCN)C(=O)N[C@@H](CC(C)C)C(=O)N[C@@H](CC(C)C)C(=O)N[C@@H](Cc1ccccc1)C(=O)N[C@@H](CO)C(N)=O)[C@@H](C)O)[C@@H](C)O
Fold Shift of EC50: 17.7 fold | Inhibition of Maximal Response: 0.0367

B5: Compound 55 (peptide)
peptide: Palmitoyl-NIVRVLATKLRE-NH2
SMILES: CCCCCCCCCCCCCCCC(=O)N[C@@H](CC(N)=O)C(=O)N[C@H](C(=O)N[C@H](C(=O)N[C@@H](CCCNC(=N)N)C(=O)N[C@H](C(=O)N[C@@H](CC(C)C)C(=O)N[C@@H](C)C(=O)N[C@H](C(=O)N[C@@H](CCCCN)C(=O)N[C@@H](CC(C)C)C(=O)N[C@@H](CCCNC(=N)N)C(=O)N[C@@H](CCC(=O)O)C(N)=O)[C@@H](C)O)C(C)C)C(C)C)[C@@H](C)CC
Fold Shift of EC50: 0.6 fold | Inhibition of Maximal Response: 26.1%

B6: Compound 61 (peptide)
peptide: Palmitoyl-RETNAGRSDTRQQYRF-NH2
SMILES: CCCCCCCCCCCCCCCC(=O)N[C@@H](CCCNC(=N)N)C(=O)N[C@@H](CCC(=O)O)C(=O)N[C@H](C(=O)N[C@@H](CC(N)=O)C(=O)N[C@@H](C)C(=O)NCC(=O)N[C@@H](CCCNC(=N)N)C(=O)N[C@@H](CO)C(=O)N[C@@H](CC(=O)O)C(=O)N[C@H](C(=O)N[C@@H](CCCNC(=N)N)C(=O)N[C@@H](CCC(N)=O)C(=O)N[C@@H](CCC(N)=O)C(=O)N[C@@H](Cc1ccc(O)cc1)C(=O)N[C@@H](CCCNC(=N)N)C(=O)N[C@@H](Cc1ccccc1)C(N)=O)[C@@H](C)O)[C@@H](C)O
Fold Shift of EC50: 0.7 fold | Inhibition of Maximal Response: -47.6%

B7: Compound 56 (peptide)
peptide: Palmitoyl-DTRQQYRKLLKSTL-NH2
SMILES: CCCCCCCCCCCCCCCC(=O)N[C@@H](CC(=O)O)C(=O)N[C@H](C(=O)N[C@@H](CCCNC(=N)N)C(=O)N[C@@H](CCC(N)=O)C(=O)N[C@@H](CCC(N)=O)C(=O)N[C@@H](Cc1ccc(O)cc1)C(=O)N[C@@H](CCCNC(=N)N)C(=O)N[C@@H](CCCCN)C(=O)N[C@@H](CC(C)C)C(=O)N[C@@H](CC(C)C)C(=O)N[C@@H](CCCCN)C(=O)N[C@@H](CO)C(=O)N[C@H](C(=O)N[C@@H](CC(C)C)C(N)=O)[C@@H](C)O)[C@@H](C)O
Fold Shift of EC50: 1.9 fold | Inhibition of Maximal Response: -30.4%

B8: Compound 57 (peptide)
peptide: Palmitoyl-RQQYRKLLKSTL-NH2
SMILES: CCCCCCCCCCCCCCCC(=O)N[C@@H](CCCNC(=N)N)C(=O)N[C@@H](CCC(N)=O)C(=O)N[C@@H](CCC(N)=O)C(=O)N[C@@H](Cc1ccc(O)cc1)C(=O)N[C@@H](CCCNC(=N)N)C(=O)N[C@@H](CCCCN)C(=O)N[C@@H](CC(C)C)C(=O)N[C@@H](CC(C)C)C(=O)N[C@@H](CCCCN)C(=O)N[C@@H](CO)C(=O)N[C@H](C(=O)N[C@@H](CC(C)C)C(N)=O)[C@@H](C)O
Fold Shift of EC50: 15.6 fold | Inhibition of Maximal Response: -38.8%

B9: Compound 59 (peptide)
peptide: Palmitoyl-RETNAGRSDTRQQYRKLL-NH2
SMILES: CCCCCCCCCCCCCCCC(=O)N[C@@H](CCCNC(=N)N)C(=O)N[C@@H](CCC(=O)O)C(=O)N[C@H](C(=O)N[C@@H](CC(N)=O)C(=O)N[C@@H](C)C(=O)NCC(=O)N[C@@H](CCCNC(=N)N)C(=O)N[C@@H](CO)C(=O)N[C@@H](CC(=O)O)C(=O)N[C@H](C(=O)N[C@@H](CCCNC(=N)N)C(=O)N[C@@H](CCC(N)=O)C(=O)N[C@@H](CCC(N)=O)C(=O)N[C@@H](Cc1ccc(O)cc1)C(=O)N[C@@H](CCCNC(=N)N)C(=O)N[C@@H](CCCCN)C(=O)N[C@@H](CC(C)C)C(=O)N[C@@H](CC(C)C)C(N)=O)[C@@H](C)O)[C@@H](C)O
Fold Shift of EC50: 5.2 fold | Inhibition of Maximal Response: 3%

B10: Compound 3 (peptide)
peptide: Palmitoyl-LAYFRRLHSTRNY-NH2
SMILES: CCCCCCCCCCCCCCCC(=O)N[C@@H](CC(C)C)C(=O)N[C@@H](C)C(=O)N[C@@H](Cc1ccc(O)cc1)C(=O)N[C@@H](Cc1ccccc1)C(=O)N[C@@H](CCCNC(=N)N)C(=O)N[C@@H](CCCNC(=N)N)C(=O)N[C@@H](CC(C)C)C(=O)N[C@@H](Cc1c[nH]cn1)C(=O)N[C@@H](CO)C(=O)N[C@H](C(=O)N[C@@H](CCCNC(=N)N)C(=O)N[C@@H](CC(N)=O)C(=O)N[C@@H](Cc1ccc(O)cc1)C(N)=O)[C@@H](C)O
Fold Shift of EC50: 0.7 fold | Inhibition of Maximal Response: -51.4%
